Test results: paper PMC8688357 (Frontiers in Microbiology, 2021)

Biological target: T1, recombinant biotin peptide-6 x His-tagged SARS-CoV-2 N protein (SARS-CoV-2 N-Bio-His6), biotinylated (SARS-CoV-2, UniProt P0DTC9 1-419)
T1 construct: also called recombinant SARS-CoV-2 N fusion protein
Assay: ELISA
Conditions: both partners purified

B1: SARS-CoV-2 Spike CD-Fc (fusion protein containing the SARS-CoV-2 Spike C-terminal domain and the human IgG1 Fc domain) (Fc fusion)
chain: LCCMTSCCSCLKGCCSCGSCCKFDEDDSEPVLKGVKLHYT
notes: also called recombinant SARS-CoV-2 Spike CD fusion protein
B1: binds.
